Experimental data as given in article PMC12562681, “Targeting a Tau Kinase Cdk5, Cyclin-Dependent Kinase: A Blood-Based Diagnostic Marker and Therapeutic Earmark for Alzheimer’s Disease” (Biomolecules, 2025).

Legend:
[1] = target: recombinant human Cdk5 (Cyclin-Dependent Kinase 5) (human) (UniProt Q00535)
[2] = target: recombinant human Cdk5 (Cyclin-Dependent Kinase 5) (human) (UniProt Q00535); assay: SPR; recombinant Cdk5 immobilised on a Ni-NTA sensor chip (NiCl2 solution, then the protein); peptide YCWS passed over at 0.4, 0.6 and 1 µM; KA and KD calculated with BIA evaluation 3.0 software

peptide YCWS showed a cell viability (MTT) of differentiated SH-SY5Y cells treated with 20 µM aggregated Aβ25–35 together with YCWS at 2, 5, 10, 15 and 20 µM (77.65% without the peptide) [1] of 98.5% and a Kd [2] of 3.94 nM.
